Data published in patent publication US20210393713A1 (published 2021).

Target: AAV-PHP.B capsid (AAV9 variant with the […] insert)
Assay: SPR

B1: LY6A as used in SPR (immobilized on the sensor chip, or monomeric in solution) (receptor)
chain: LECYQCYGVPFETSCPSITCPYPDGVCVTQEAAVIVDSQTRKVKNNLCLPICPPNIESMEILGTKVNVKTSCCQEDLCNVAVPNG
  Kd: 0.119 nM
